Data: article PMC2063504, “Glycerate kinase of the hyperthermophilic archaeon Thermoproteus tenax: new insights into the phylogenetic distribution and physiological role of members of the three different glycerate kinase classes” (BMC Genomics, 2007)

Key:
[1] = target: T1, glycerate kinase (GarK; class II glycerate kinase, MOFRL family) (Thermoproteus tenax, UniProt G4RPE9); test: coupled assay, effector study; assay type: biochemical; details: product inhibitor, suggested competitive with ATP; 0.05 mM D-glycerate, 0.05 mM ATP (non-saturating), pH 7.5, 70 °C; mean of two measurements
T1 construct: full-length ORF, 398 residues, pET-24a (NdeI/EcoRI), E. coli BL21(DE3), no tag mentioned, conventional purification

[2] = test system: Nc1ncnc2c1ncn2[C@@H]1O[C@H](COP(=O)(O)OP(=O)(O)OP(=O)(O)O)[C@@H](O)[C@H]1O; test: discontinuous coupled assay (enolase, pyruvate kinase, lactate dehydrogenase; NADH); assay type: biochemical, Thermoproteus tenax; details: D-glycerate, 20 mM Mg2+, pH 7.5, 70 °C
O=C(O)[C@H](O)CO = test: as above; assay type: biochemical, Thermoproteus tenax; details: 5 mM ATP, 20 mM Mg2+, pH 7.5, 70 °C, D-glycerate below 0.3 mM (substrate inhibition above)

Compound | % activity of control at 0.1 mM [1] [%] | Km [2] [µM] | kcat [2] [s⁻¹] | Km (O=C(O)[C@H](O)CO) [µM] | kcat (O=C(O)[C@H](O)CO) [s⁻¹]
Nc1ncnc2c1ncn2[C@@H]1O[C@H](COP(=O)(O)OP(=O)(O)O)[C@@H](O)[C@H]1O [ADP] | 39.1 |  |  |  | 
glycerate kinase (GarK; class II glycerate kinase, MOFRL family) (Thermoproteus tenax Kra 1) |  | 30 ± 10 | 3.12 | 20 ± 10 | 3.57
